Patent US20210238260
Numbering of substitutions follows the chain as printed. In names and notes the source's numbering stands.

Target: Factor X (FX), P00742
Sequence (P00742 whole entry, looked up): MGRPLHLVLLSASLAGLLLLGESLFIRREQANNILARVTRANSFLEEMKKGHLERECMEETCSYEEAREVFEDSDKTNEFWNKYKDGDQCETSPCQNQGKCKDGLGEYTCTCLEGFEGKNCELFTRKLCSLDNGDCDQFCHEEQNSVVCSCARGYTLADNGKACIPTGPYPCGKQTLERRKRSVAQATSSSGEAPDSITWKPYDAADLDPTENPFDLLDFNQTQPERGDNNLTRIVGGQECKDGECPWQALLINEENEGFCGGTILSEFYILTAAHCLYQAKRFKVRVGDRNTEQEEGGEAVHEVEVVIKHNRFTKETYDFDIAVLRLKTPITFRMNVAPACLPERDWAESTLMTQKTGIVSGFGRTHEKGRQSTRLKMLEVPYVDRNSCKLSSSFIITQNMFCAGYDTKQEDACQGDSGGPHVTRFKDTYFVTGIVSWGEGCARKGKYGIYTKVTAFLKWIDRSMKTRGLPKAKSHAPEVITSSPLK

B1: FIXa variant Y155F/I251S/R318Y/R338E/R403E/E410N (protein)
chain 1: YNSGKLEEFVQGNLERECMEEKCSFEEAREVFENTERTTEFWKQYVDGDQCESNPCLNGGSCKDDINSYECWCPFGFEGKNCELDVTCNIKNGRCEQFCKNSADNKVVCSCTEGYRLAENQKSCEPAVPFPCGRVSVSQTSKLTR
chain 2: VVGGEDAKPGQFPWQVVLNGKVDAFCGGSIVNEKWIVTAAHCVETGVKITVVAGEHNIEETEHTEQKRNVSRIIPHHNYNAAINKYNHDIALLELDEPLVLNSYVTPICIADKEYTNIFLKFGSGYVSGWGRVFHKGYSALVLQYLRVPLVDRATCLESTKFTIYNNMFCAGFHEGGRDSCQGDSGGPHVTEVEGTSFLTGIISWGEECAMKGKYGIYTKVSEYVNWIKNKTKLT
  kcat: 7.2 s⁻¹

B2: FIXa-R318Y/R338E/N346Y/R403E/E410N (protein)
chain 1: B1 chain 1
chain 2: B1 chain 2 with S71I, N166Y
  kcat of FX activation by FIXa (Xase complex with FVIIIa, PC/PS vesicles, Ca2+): 3.4 s⁻¹

B3: FIXa D85N/K228N/R318Y/R338E/R403E/E410N (protein)
chain 1: B1 chain 1 with D85N
chain 2: B1 chain 2 with K48N, S71I
  KM (FX activation by FIXa in the Xase complex with FVIIIa, PC/PS vesicles and Ca2+): 0.0393 µM

B4: FIXa variant Y155F/K247N/N249S/R318Y/R338E/E410N (protein)
chain 1: B1 chain 1
chain 2: B1 chain 2 with K67N, N69S, S71I, E223R
  kcat: 4.5 s⁻¹

B5: FIXa Y155F/R318Y/R338E/E410N (protein)
chain 1: B1 chain 1
chain 2: B1 chain 2 with S71I, E223R
  KM: 0.016 µM

B6: FIXa variant Y155F/K247N/N249S/R318Y/R338E/R403E/E410N (protein)
chain 1: B1 chain 1
chain 2: B1 chain 2 with K67N, N69S, S71I
  kcat: 6.2 s⁻¹

B7: FIXa D104N/K106S/I251S/R318Y/R338E/E410N (protein)
chain 1: B1 chain 1 with D104N, K106S
chain 2: B1 chain 2 with E223R
  KM (FX activation by FIXa in the Xase complex with FVIIIa, PC/PS vesicles and Ca2+): 0.0243 µM

B8: FIXa K228N/R318Y/R338E/R403E/E410N (protein)
chain 1: B1 chain 1
chain 2: B1 chain 2 with K48N, S71I
  KM (FX activation by FIXa in the Xase complex with FVIIIa, PC/PS vesicles and Ca2+): 0.0361 µM

B9: FIXa K247N/N249S/R318Y/R338E/R403E/E410N (protein)
chain 1: B1 chain 1
chain 2: B1 chain 2 with K67N, N69S, S71I
  KM (FX activation by FIXa in the Xase complex with FVIIIa, PC/PS vesicles and Ca2+): 0.0392 µM

B10: FIXa-Y155F/R318Y/R338E/T343R/R403E/E410N (protein)
chain 1: B1 chain 1
chain 2: B1 chain 2 with S71I, T163R
  kcat of FX activation by FIXa (Xase complex with FVIIIa, PC/PS vesicles, Ca2+): 7.8 s⁻¹

B11: FIXa variant K247N/N249S/R318Y/R338E/E410N (protein)
chain 1: B1 chain 1
chain 2: B1 chain 2 with K67N, N69S, S71I, E223R
  kcat: 3.8 s⁻¹

B12: FIXa variant I251S/R318Y/R338E/E410N (protein)
chain 1: B1 chain 1
chain 2: B1 chain 2 with E223R
  kcat: 6.4 s⁻¹

B13: FIXa-R318Y/R338E/T343R/N346Y/R403E/E410N (protein)
chain 1: B1 chain 1
chain 2: B1 chain 2 with S71I, T163R, N166Y
  kcat of FX activation by FIXa (Xase complex with FVIIIa, PC/PS vesicles, Ca2+): 4.6 s⁻¹

B14: FIXa R318Y/R338E/R403E/E410N (protein)
chain 1: B1 chain 1
chain 2: B1 chain 2 with S71I
  KM: 0.0432 µM

B15: FIXa-D104N/K106S/R318Y/R338E/T343R/R403E/E410N (protein)
chain 1: B1 chain 1 with D104N, K106S
chain 2: B1 chain 2 with S71I, T163R
  kcat of FX activation by FIXa (Xase complex with FVIIIa, PC/PS vesicles, Ca2+): 5.7 s⁻¹

B16: FIXa Y155F/I251S/R318Y/R338E/R403E/E410N (protein)
chain 1: B1 chain 1
chain 2: B1 chain 2
  KM (FX activation by FIXa in the Xase complex with FVIIIa, PC/PS vesicles and Ca2+): 0.0433 µM

B17: FIXa I251S/R318Y/R338E/E410N (protein)
chain 1: B1 chain 1
chain 2: B1 chain 2 with E223R
  KM (FX activation by FIXa in the Xase complex with FVIIIa, PC/PS vesicles and Ca2+): 0.0161 µM

B18: FIXa Y155F/K228N/R318Y/R338E/R403E/E410N (protein)
chain 1: B1 chain 1
chain 2: B1 chain 2 with K48N, S71I
  KM (FX activation by FIXa in the Xase complex with FVIIIa, PC/PS vesicles and Ca2+): 0.0408 µM

B19: FIXa Y155F/K247N/N249S/R318Y/R338E/R403E/E410N (protein)
chain 1: B1 chain 1
chain 2: B1 chain 2 with K67N, N69S, S71I
  KM (FX activation by FIXa in the Xase complex with FVIIIa, PC/PS vesicles and Ca2+): 0.0363 µM

B20: FIXa variant K247N/N249S/R318Y/R338E/R403E/E410N (protein)
chain 1: B1 chain 1
chain 2: B1 chain 2 with K67N, N69S, S71I
  kcat: 5.8 s⁻¹

B21: FIXa Y155F/R338E/R403E/E410N (protein)
chain 1: B1 chain 1
chain 2: B1 chain 2 with S71I, Y138R, E158R, R178E
  KM: 0.0336 µM

B22: FIXa I251S/R318Y/R338E/R403E/E410N (protein)
chain 1: B1 chain 1
chain 2: B1 chain 2
  KM (FX activation by FIXa in the Xase complex with FVIIIa, PC/PS vesicles and Ca2+): 0.0334 µM

B23: FIXa A103N/N105S/K247N/N249S/R318Y/R338E/R403E/E410N (protein)
chain 1: B1 chain 1 with A103N, N105S
chain 2: B1 chain 2 with K67N, N69S, S71I
  KM (FX activation by FIXa in the Xase complex with FVIIIa, PC/PS vesicles and Ca2+): 0.028 µM

B24: FIXa-R318Y/R338E/T343R/N346D/R403E/E410N (protein)
chain 1: B1 chain 1
chain 2: B1 chain 2 with S71I, T163R, N166D
  kcat of FX activation by FIXa (Xase complex with FVIIIa, PC/PS vesicles, Ca2+): 5.4 s⁻¹

B25: FIXa-R318Y/R338E/Y345A/N346D/R403E/E410N (protein)
chain 1: B1 chain 1
chain 2: B1 chain 2 with S71I, Y165A, N166D
  kcat of FX activation by FIXa (Xase complex with FVIIIa, PC/PS vesicles, Ca2+): 1.2 s⁻¹

B26: FIXa K228N/R318Y/E410N (protein)
chain 1: B1 chain 1
chain 2: B1 chain 2 with K48N, S71I, E158R, E223R
  KM: 0.042 µM

B27: FIXa K228N/R338E/R403E (protein)
chain 1: B1 chain 1
chain 2: B1 chain 2 with K48N, S71I, Y138R, N230E
  KM: 0.0592 µM

B28: FIXa D104N/K106S/R318Y/R338E/E410N (protein)
chain 1: B1 chain 1 with D104N, K106S
chain 2: B1 chain 2 with S71I, E223R
  KM: 0.0189 µM

B29: FIXa D203N/F205T/E410N (protein)
chain 1: B1 chain 1
chain 2: B1 chain 2 with D23N, F25T, S71I, Y138R, E158R, E223R
  KM: 0.0455 µM

B30: FIXa-D104N/K106S/K228N/K247N/N249S/R318Y/R338E/R403E/E410N (protein)
chain 1: B1 chain 1 with D104N, K106S
chain 2: B1 chain 2 with K48N, K67N, N69S, S71I
  kcat of FX activation by FIXa (Xase complex with FVIIIa, PC/PS vesicles, Ca2+): 6.1 s⁻¹

B31: FIXa R318Y/R338E/E410N (protein)
chain 1: B1 chain 1
chain 2: B1 chain 2 with S71I, E223R
  KM: 0.0139 µM

B32: FIXa R318Y/R338E/R403E (protein)
chain 1: B1 chain 1
chain 2: B1 chain 2 with S71I, N230E
  KM: 0.0597 µM

B33: FIXa Y155F/R318Y/R403E/E410N (protein)
chain 1: B1 chain 1
chain 2: B1 chain 2 with S71I, E158R
  KM: 0.111 µM

B34: FIXa R338E/R403E/E410N (protein)
chain 1: B1 chain 1
chain 2: B1 chain 2 with S71I, Y138R
  KM: 0.0367 µM

B35: FIXa D203N/F205T/R338E (protein)
chain 1: B1 chain 1
chain 2: B1 chain 2 with D23N, F25T, S71I, Y138R, E223R, N230E
  KM: 0.0241 µM

B36: FIXa Y259F/K265T/Y345T (protein)
chain 1: B1 chain 1
chain 2: B1 chain 2 with S71I, Y79F, K85T, Y138R, E158R, Y165T, E223R, N230E
  KM (FX activation by FIXa in the Xase complex with FVIIIa, PC/PS vesicles and Ca2+): 0.0309 µM

B37: FIXa D203N/F205T/R318Y (protein)
chain 1: B1 chain 1
chain 2: B1 chain 2 with D23N, F25T, S71I, E158R, E223R, N230E
  KM: 0.0475 µM

B38: FIXa variant D104N/K106S/Y155F/K247N/N249S/R318Y/R338E/R403E/E410N (protein)
chain 1: B1 chain 1 with D104N, K106S
chain 2: B1 chain 2 with K67N, N69S, S71I
  kcat: 6.9 s⁻¹

B39: FIXa D203N/F205T/K228N (protein)
chain 1: B1 chain 1
chain 2: B1 chain 2 with D23N, F25T, K48N, S71I, Y138R, E158R, E223R, N230E
  KM: 0.0399 µM

B40: FIXa-R318Y/R338E/Y345A/R403E/E410N (protein)
chain 1: B1 chain 1
chain 2: B1 chain 2 with S71I, Y165A
  kcat of FX activation by FIXa (Xase complex with FVIIIa, PC/PS vesicles, Ca2+): 1.4 s⁻¹

B41: FIXa D203N/F205T/R338A (protein)
chain 1: B1 chain 1
chain 2: B1 chain 2 with D23N, F25T, S71I, Y138R, E158A, E223R, N230E
  KM: 0.0385 µM

B42: FIXa D203N/F205T/R338E/R403E (protein)
chain 1: B1 chain 1
chain 2: B1 chain 2 with D23N, F25T, S71I, Y138R, N230E
  KM: 0.0511 µM

B43: FIXa R318Y/R403E/E410N (protein)
chain 1: B1 chain 1
chain 2: B1 chain 2 with S71I, E158R
  KM: 0.0942 µM

B44: FIXa variant D104N/K106S/K247N/N249S/R318Y/R338E/R403E/E410N (protein)
chain 1: B1 chain 1 with D104N, K106S
chain 2: B1 chain 2 with K67N, N69S, S71I
  kcat: 5.2 s⁻¹

B45: FIXa Y155F/R318Y/R338E/R403E (protein)
chain 1: B1 chain 1
chain 2: B1 chain 2 with S71I, N230E
  KM: 0.0671 µM
